Data taken from US20260167699A1 (Chugai, published 2026).
Numbering of substitutions follows the chain as printed. Blank lines part the entries; values can stand above or below the binder they belong to.

Key:
[1] = target: T1, FcγRIa extracellular domain with C-terminal His tag (human, UniProt P12314 16-292); experiment: SPR; % of GpH7-A5/GpH7-B3/GpL16-k0
T1 construct: extracellular domain; also called 1a; CD64

[2] = target: T2, FcγRIIa(R) extracellular domain with C-terminal His tag (human, UniProt P12318 34-217); experiment: SPR; % of GpH7-A5/GpH7-B3/GpL16-k0
T2 construct: extracellular domain; R131 allotype; also called 2aR; CD32
T2 sequence: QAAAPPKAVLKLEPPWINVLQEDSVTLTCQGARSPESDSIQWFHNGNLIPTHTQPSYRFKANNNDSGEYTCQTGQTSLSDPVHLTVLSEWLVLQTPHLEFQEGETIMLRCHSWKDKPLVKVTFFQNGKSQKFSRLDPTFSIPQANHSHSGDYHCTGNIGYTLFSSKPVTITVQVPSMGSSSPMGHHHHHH

[3] = target: T3, FcγRIIa(H) extracellular domain with C-terminal His tag (human, UniProt P12318 34-217); experiment: SPR; % of GpH7-A5/GpH7-B3/GpL16-k0
T3 construct: extracellular domain; H131 allotype; also called 2aH; CD32
T3 sequence: T2 sequence with R134H

[4] = target: T4, FcγRIIb extracellular domain with C-terminal His tag (human, UniProt P31994 43-217); experiment: SPR; % of GpH7-A5/GpH7-B3/GpL16-k0
T4 construct: extracellular domain; also called 2b; CD32
T4 sequence: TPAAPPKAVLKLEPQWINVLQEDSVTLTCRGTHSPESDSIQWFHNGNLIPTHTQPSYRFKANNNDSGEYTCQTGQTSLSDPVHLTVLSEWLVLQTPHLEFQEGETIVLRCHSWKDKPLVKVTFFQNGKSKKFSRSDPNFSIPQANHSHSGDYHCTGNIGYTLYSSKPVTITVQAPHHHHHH

[5] = target: T5, FcγRIIIa extracellular domain with C-terminal His tag (human, UniProt P08637 17-208); experiment: SPR; % of GpH7-A5/GpH7-B3/GpL16-k0
T5 construct: extracellular domain; also called 3a; CD16

FcγRIa = target: T6, FcγRIa (human, UniProt P12314 16-292); experiment: SPR (Biacore), binding relative to GpH7-A5/GpH7-B3/GpL16-k0 x100;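 also: surface plasmon resonance at 25 °C, antibody captured on a sensor chip and soluble FcγR flowed over it in HBS-EP+ running buffer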
T6 construct: extracellular domain; also called 1a
Experimental: (§1) The antibody of interest was analyzed for its interaction with FcγR using a BiaCore™ T100, BiaCore™ A100, or BiaCore™ 4000 surface plasmon resonance system (GE Healthcare Japan Corp.). The running buffer used was HBS-EP+ (GE Healthcare Japan Corp.). The assay temperature was set to 25° C. The sensor chips used were: a chip prepared by immobilizing antigenic peptides onto Series S Sensor Chip CM5 (GE Healthcare Japan Corp.) by the amine coupling method; a chip prepared by immobilizing antigenic peptides biotinylated in advance onto Series S Sensor Chip SA (certified) (GE Healthcare Japan Corp.) through their interaction; a chip prepared by immobilizing protein L (ACTIGEN, BioVision, Inc.) onto Series S Sensor Chip CM5 (GE Healthcare Japan Corp.); and a chip prepared by immobilizing protein A/G (Thermo Fisher Scientific K.K.) onto Series S Sensor Chip CM5 (GE Healthcare Japan Corp.). The antibody of interest was captured onto any of these chips and allowed to interact with FcγR diluted with a running buffer. The antibody captured on the chip was washed off through the reaction of 10 mM glycine-HCl (pH 1.5) to regenerate the chip, which was repetitively used.

FcγRIIa(R) = target: T7, FcγRIIa(R) (human, UniProt P12318 34-217); experiment: as above
T7 construct: extracellular domain; also called FcγRIIa R type; 2aR
T7 sequence: T2 sequence
Experimental: as §1

FcγRIIa(H) = target: T8, FcγRIIa(H) (human, UniProt P12318 34-217); experiment: as above
T8 construct: extracellular domain; also called FcγRIIa H type; 2aH
T8 sequence: T2 sequence with R134H
Experimental: as §1

FcγRIIb = target: T9, FcγRIIb (human, UniProt P31994 43-217); experiment: as above
T9 construct: extracellular domain; also called 2b
T9 sequence: T4 sequence
Experimental: as §1

T1 sequence (P12314 other isoform, or with tags, fused parts or gaps): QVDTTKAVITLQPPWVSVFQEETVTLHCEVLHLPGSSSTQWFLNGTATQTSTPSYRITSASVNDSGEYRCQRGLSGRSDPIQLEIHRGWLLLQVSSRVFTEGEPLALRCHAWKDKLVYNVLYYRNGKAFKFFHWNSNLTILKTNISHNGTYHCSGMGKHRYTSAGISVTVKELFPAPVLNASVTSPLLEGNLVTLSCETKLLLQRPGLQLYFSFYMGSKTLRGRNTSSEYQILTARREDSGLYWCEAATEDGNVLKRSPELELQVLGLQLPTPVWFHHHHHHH
T6 sequence (P12314 other isoform, or with tags, fused parts or gaps): as above
T5 sequence (P08637 other isoform, or with tags, fused parts or gaps): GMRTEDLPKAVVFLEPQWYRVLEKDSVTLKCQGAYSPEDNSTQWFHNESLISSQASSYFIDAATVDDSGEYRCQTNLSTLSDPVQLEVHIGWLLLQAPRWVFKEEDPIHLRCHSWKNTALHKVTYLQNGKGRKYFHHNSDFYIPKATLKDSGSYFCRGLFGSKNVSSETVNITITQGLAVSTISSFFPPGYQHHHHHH

B2: GpH7-A5/GpH7-B3 variant H268_05P/GpL16-k0 (antibody, human IgG1, kappa)
heavy 1: not shown
heavy 2: not shown
light: DIVMTQSPLSLPVTPGEPASISCQASESLVHSNRNTYLHWYLQKPGQSPQLLIYKVSNRFSGVPDRFSGSGSGTDFTLKISRVEAEDVGVYYCSQNTHVPPTFGQGTKVEIERTVAAPSVFIFPPSDEQLKSGTASVVCLLNNFYPREAKVQWKVDNALQSGNSQESVTEQDSKDSTYSLSSTLTLSKADYEKHKVYACEVTHQGLSSPVTKSFNRGEC
notes: heterodimerized IgG1, one H chain mutated; also called He Ab
He/Con 1a (FcγRIa): 106%
He/Con 2aR (FcγRIIa(R)): 114%
He/Con 2aH (FcγRIIa(H)): 82.7%
He/Con 2b (FcγRIIb): 122%

B3: GpH7-A5/GpH7-B3 variant G236_09D/GpL16-k0 (antibody, human IgG1, kappa)
heavy 1: not shown
heavy 2: not shown
light: B2 light
notes: as for B2
He/Con 1a (FcγRIa): 95.5%
He/Con 2aR (FcγRIIa(R)): 105%
He/Con 2aH (FcγRIIa(H)): 93.5%
He/Con 2b (FcγRIIb): 174%

B7: GpH7-A5/GpH7-B3 variant D270_10E/GpL16-k0 (antibody, human IgG1, kappa)
heavy 1: not shown
heavy 2: not shown
light: B2 light
notes: as for B2
He/Con 1a (FcγRIa): 104%
He/Con 2aR (FcγRIIa(R)): 85.7%
He/Con 2aH (FcγRIIa(H)): 111%
He/Con 2b (FcγRIIb): 72.5%

B8: GpH7-A5/GpH7-B3 variant E269_14T/GpL16-k0 (antibody, human IgG1, kappa)
heavy 1: not shown
heavy 2: not shown
light: B2 light
notes: as for B2
He/Con 1a (FcγRIa): 102%
He/Con 2aR (FcγRIIa(R)): 71%
He/Con 2aH (FcγRIIa(H)): 70.3%
He/Con 2b (FcγRIIb): 53.2%

B9: GpH7-A5/GpH7-B3 variant H268_06M/GpL16-k0 (antibody, human IgG1, kappa)
heavy 1: not shown
heavy 2: not shown
light: B2 light
notes: as for B2
He/Con 1a (FcγRIa): 101%
He/Con 2aR (FcγRIIa(R)): 67.2%
He/Con 2aH (FcγRIIa(H)): 85.8%
He/Con 2b (FcγRIIb): 69%

B11: GpH7-A5/GpH7-B3 variant H268_02A/GpL16-k0 (antibody, human IgG1, kappa)
heavy 1: not shown
heavy 2: not shown
light: B2 light
notes: as for B2
He/Con 1a (FcγRIa): 105%
He/Con 2aR (FcγRIIa(R)): 143%
He/Con 2aH (FcγRIIa(H)): 115%
He/Con 2b (FcγRIIb): 175%

Next, values leading:

He/Con 1a [1]: 118%
He/Con 2aR [2]: 114%
He/Con 2aH [3]: 109%
He/Con 2b [4]: 114%
He/Con 3a [5]: 97.8%
B1: GpH7-A5/GpH7-B3 variant T335_08L/GpL16-k0 (antibody, human IgG1, kappa)
heavy 1: not shown
heavy 2: not shown
light: B2 light
notes: heterodimerized IgG1 (He Ab), mutation in one H chain only; also called He Ab

He/Con 1a [1]: 109%
He/Con 2aR [2]: 112%
He/Con 2aH [3]: 107%
He/Con 2b [4]: 111%
He/Con 3a [5]: 94.4%
B4: GpH7-A5/GpH7-B3 variant T335_18N/GpL16-k0 (antibody, human IgG1, kappa)
heavy 1: not shown
heavy 2: not shown
light: B2 light
notes: as for B1

He/Con 1a (FcγRIa): 104%
He/Con 2aR (FcγRIIa(R)): 102%
He/Con 2aH (FcγRIIa(H)): 91.2%
He/Con 2b (FcγRIIb): 93.4%
B5: GpH7-A5/GpH7-B3 variant H268_07I/GpL16-k0 (antibody, human IgG1, kappa)
heavy 1: not shown
heavy 2: not shown
light: B2 light
notes: as for B2

He/Con 1a [1]: 111%
He/Con 2aR [2]: 116%
He/Con 2aH [3]: 111%
He/Con 2b [4]: 118%
He/Con 3a [5]: 103%
B6: GpH7-A5/GpH7-B3 variant T335_09D/GpL16-k0 (antibody, human IgG1, kappa)
heavy 1: not shown
heavy 2: not shown
light: B2 light
notes: as for B1

He/Con 1a [1]: 114%
He/Con 2aR [2]: 105%
He/Con 2aH [3]: 103%
He/Con 2b [4]: 99.4%
He/Con 3a [5]: 91.7%
B10: GpH7-A5/GpH7-B3 variant T335_11K/GpL16-k0 (antibody, human IgG1, kappa)
heavy 1: not shown
heavy 2: not shown
light: B2 light
notes: as for B1

He/Con 1a [1]: 112%
He/Con 2aR [2]: 117%
He/Con 2aH [3]: 112%
He/Con 2b [4]: 118%
He/Con 3a [5]: 102%
B12: GpH7-A5/GpH7-B3 variant T335_10E/GpL16-k0 (antibody, human IgG1, kappa)
heavy 1: not shown
heavy 2: not shown
light: B2 light
notes: as for B1

He/Con 1a [1]: 116%
He/Con 2aR [2]: 106%
He/Con 2aH [3]: 103%
He/Con 2b [4]: 100%
He/Con 3a [5]: 93.1%
B13: GpH7-A5/GpH7-B3 variant T335_12R/GpL16-k0 (antibody, human IgG1, kappa)
heavy 1: not shown
heavy 2: not shown
light: B2 light
notes: as for B1

He/Con 1a [1]: 108%
He/Con 2aR [2]: 112%
He/Con 2aH [3]: 107%
He/Con 2b [4]: 109%
He/Con 3a [5]: 97.7%
B14: GpH7-A5/GpH7-B3 variant T335_19Q/GpL16-k0 (antibody, human IgG1, kappa)
heavy 1: not shown
heavy 2: not shown
light: B2 light
notes: as for B1

He/Con 1a [1]: 110%
He/Con 2aR [2]: 115%
He/Con 2aH [3]: 109%
He/Con 2b [4]: 114%
He/Con 3a [5]: 97.3%
B15: GpH7-A5/GpH7-B3 variant T335_20W/GpL16-k0 (antibody, human IgG1, kappa)
heavy 1: not shown
heavy 2: not shown
light: B2 light
notes: as for B1
